From paper PMC10696660 come the findings set out here.

This assay deals with AqpZ (UniProt P60844). The assay can be described thus: native MS.

Usually stoichiometry N stands for the number of molecules, sites or subunits per partner or assembly. Substance “AqpZ (from UniProt P60844 1-231) (natural protein)” displayed a stoichiometry N of 4.
